Data published in publication PMC4577447.

Target: transcription elongation complex
Assay: single-molecule fluorescence co-localization

B1: GreB (natural protein)
chain: MKTPLVTREGYEKLKQELNYLWREERPEVTKKVTWAASLGDRSENADYQYNKKRLREIDRRVRYLTKCLENLKIVDYSPQQEGKVFFGAWVEIENDDGVTHRFRIVGYDEIFGRKDYISIDSPMARALLKKEVGDLAVVNTPAGEASWYVNAIEYVKP
modifications: fluorescent dye label: Cy3 (Figure 5) or Cy3B (Figure 6); position not stated
  ka (apparent first-order association rate constant at 0.5 nM GreB): 0.0149 s⁻¹
